Data from patent US20210145976A1 (ARO BIOTHERAPEUTICS, published 2021).
Residue numbers refer to the chain shown, from its start. Values belong to the binder of their own block, whether it stands above or below them.

Legend:
[1] = biological target: T1, recombinant biotinylated CD71 extracellular domain (Sino Biologics) with an N-terminal 6His tag (human, UniProt P02786 89-760, biotinylated (sites not given)); experiment: screening ELISA, ratio
T1 construct: extracellular domain; also called hCD71; huCD71
T1 sequence (P02786 other isoform, or with tags, fused parts or gaps): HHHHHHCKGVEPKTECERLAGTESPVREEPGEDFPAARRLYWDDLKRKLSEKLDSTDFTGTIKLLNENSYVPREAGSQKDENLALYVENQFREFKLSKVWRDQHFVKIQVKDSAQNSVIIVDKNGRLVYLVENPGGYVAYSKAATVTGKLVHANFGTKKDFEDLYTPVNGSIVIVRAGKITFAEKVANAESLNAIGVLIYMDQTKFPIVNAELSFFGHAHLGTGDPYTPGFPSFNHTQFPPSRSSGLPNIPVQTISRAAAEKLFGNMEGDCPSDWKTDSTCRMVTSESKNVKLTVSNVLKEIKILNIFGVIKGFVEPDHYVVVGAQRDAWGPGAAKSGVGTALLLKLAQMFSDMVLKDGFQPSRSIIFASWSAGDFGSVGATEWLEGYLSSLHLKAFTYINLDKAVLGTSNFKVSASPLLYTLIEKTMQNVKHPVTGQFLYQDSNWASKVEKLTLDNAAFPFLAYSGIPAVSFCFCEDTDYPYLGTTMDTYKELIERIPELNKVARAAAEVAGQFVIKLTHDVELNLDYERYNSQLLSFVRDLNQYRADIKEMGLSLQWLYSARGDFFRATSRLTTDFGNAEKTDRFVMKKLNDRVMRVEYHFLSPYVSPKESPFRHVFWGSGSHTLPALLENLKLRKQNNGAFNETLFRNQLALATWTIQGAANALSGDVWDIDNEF
Method: (§1) To screen for FN3 domains that specifically bind CD71, streptavidin-coated Maxisorp plates (Nunc catalog 436110) were blocked for 1 hour in Starting Block T20 (Pierce) and then coated with biotinylated CD71 (using same antigen as in panning) or negative controls (an unrelated Fc-fused recombinant protein and human serum albumin) for 1 hour. Plates were rinsed with TBST and diluted lysate was applied to plates for 1 hour. Following additional rinses, wells were treated with HRP-conjugated anti-V5 tag antibody (Abcam, ab1325), for 1 hour and then assayed with POD (Roche, 11582950001).

[2] = biological target: T1, recombinant biotinylated CD71 …; experiment: screening ELISA
Method: as §1

CD71 on SK-BR-3 cells [3] = biological target: T2, CD71 on SK-BR-3 cells (human, UniProt P02786 1-760); experiment: cell-based or functional assay
T2 sequence (P02786 whole entry): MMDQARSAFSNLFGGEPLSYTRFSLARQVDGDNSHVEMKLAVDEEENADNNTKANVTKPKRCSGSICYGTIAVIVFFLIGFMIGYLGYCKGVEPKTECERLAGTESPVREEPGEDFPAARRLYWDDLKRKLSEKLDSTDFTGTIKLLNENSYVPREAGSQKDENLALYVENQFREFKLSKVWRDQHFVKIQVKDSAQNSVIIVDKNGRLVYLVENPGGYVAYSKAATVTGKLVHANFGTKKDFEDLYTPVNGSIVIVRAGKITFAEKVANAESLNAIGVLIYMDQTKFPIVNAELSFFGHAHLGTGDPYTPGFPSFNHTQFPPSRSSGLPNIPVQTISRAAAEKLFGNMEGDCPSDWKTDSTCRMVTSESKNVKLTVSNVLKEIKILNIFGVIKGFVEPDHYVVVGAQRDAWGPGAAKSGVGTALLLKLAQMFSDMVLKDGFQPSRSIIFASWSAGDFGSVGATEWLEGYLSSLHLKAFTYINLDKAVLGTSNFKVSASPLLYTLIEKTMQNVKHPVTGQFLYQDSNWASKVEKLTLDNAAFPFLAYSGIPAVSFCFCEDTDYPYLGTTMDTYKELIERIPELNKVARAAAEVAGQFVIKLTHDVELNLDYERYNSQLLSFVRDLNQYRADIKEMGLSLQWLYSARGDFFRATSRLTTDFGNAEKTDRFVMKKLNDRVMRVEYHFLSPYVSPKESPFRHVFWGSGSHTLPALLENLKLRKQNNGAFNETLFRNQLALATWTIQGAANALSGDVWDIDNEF

CD71 on SK-BR-3 cells [4] = biological target: T2, CD71 on SK-BR-3 cells; experiment: cell-based or functional assay; remark: listed apart in the source

- huCD71/Fc [1]: 113
- hCD71 [2]: 1.9e+06
B4: SEQ ID NO 57 (designed binder)
chain: MLPAPKNLVVSRVTEDSARLSWTAPDAAFDSFSIKYLEWWQDGEAIVLTVPGSERSYDLTGLKPGTEYYVHIAGVKGGYRSYPLSAIFTT
notes: FN3 domain
- IC50, SK-BR3 viability, MMAF conjugate, no competitor (CD71 on SK-BR-3 cells [3]): 0.38 nM
- IC50, SK-BR3 viability, MMAF conjugate, with 0.6 uM holo-human transferrin (CD71 on SK-BR-3 cells [3]): 5.3 nM
- IC50, SKBR-3 cell viability, MMAF conjugate (CD71 on SK-BR-3 cells [4]): 3.13 nM

- huCD71/Fc [1]: 691
- hCD71 [2]: 4.48e+06
B5: SEQ ID NO 60 (designed binder)
chain: MLPAPKNLVVSRVTEDSARLSWTAPDAAFDSFTIWYAEAIGHGEAIVLTVPGSERSYDLTGLKPGTEYWVDIWGVKGGQQSKPLSAIFTT
notes: FN3 domain
- IC50, SK-BR3 viability, MMAF conjugate, no competitor (CD71 on SK-BR-3 cells [3]): 0.21 nM
- IC50, SK-BR3 viability, MMAF conjugate, with 0.6 uM holo-human transferrin (CD71 on SK-BR-3 cells [3]): 14.4 nM
- IC50, SKBR-3 cell viability, MMAF conjugate (CD71 on SK-BR-3 cells [4]): 0.45 nM

- huCD71/Fc [1]: 1510
- hCD71 [2]: 1.13e+07
B6: SEQ ID NO 56 (designed binder)
chain: MLPAPKNLVVSRVTEDSARLSWTAPDAAFDSFVIEYFEALEGGEAIVLTVPGSERSYDLTGLKPGTEYFVGIYGVKGGPLSKPLSAIFTT
notes: FN3 domain
- IC50, SK-BR3 viability, MMAF conjugate, no competitor (CD71 on SK-BR-3 cells [3]): 0.35 nM
- IC50, SK-BR3 viability, MMAF conjugate, with 0.6 uM holo-human transferrin (CD71 on SK-BR-3 cells [3]): 14.7 nM
- IC50, SKBR-3 cell viability, MMAF conjugate (CD71 on SK-BR-3 cells [4]): 0.24 nM

- huCD71/Fc [1]: 1440
- hCD71 [2]: 1.11e+07
B7: SEQ ID NO 55 (designed binder)
chain: B6 chain with V33I, F37W, A39F, L40V, E41G, G42Y, F69W, G71A, P79D
notes: FN3 domain
- IC50, SK-BR3 viability, MMAF conjugate, no competitor (CD71 on SK-BR-3 cells [3]): 0.15 nM
- IC50, SK-BR3 viability, MMAF conjugate, with 0.6 uM holo-human transferrin (CD71 on SK-BR-3 cells [3]): 5.5 nM
- IC50, SKBR-3 cell viability, MMAF conjugate (CD71 on SK-BR-3 cells [4]): 0.026 nM

Second part, the binder before the results:

B1: SEQ ID NO 54 (designed binder)
chain: MLPAPKNLVVSRVTEDSARLSWTAPDAAFDSFQILYQENAFEGEAIVLTVPGSERSYDLTGLKPGTEYWVYIYGVKGGYPSVPLSAIFTT
notes: FN3 domain
- huCD71/Fc [1]: 1130
- hCD71 [2]: 6.99e+06
- IC50, SK-BR3 viability, MMAF conjugate, no competitor (CD71 on SK-BR-3 cells [3]): 0.13 nM
- IC50, SK-BR3 viability, MMAF conjugate, with 0.6 uM holo-human transferrin (CD71 on SK-BR-3 cells [3]): 5 nM
- IC50, SKBR-3 cell viability, MMAF conjugate (CD71 on SK-BR-3 cells [4]): 0.4 nM

B2: SEQ ID NO 34 (designed binder)
chain: MLPAPKNLVVSRVTEDSARLSWTAPDAAFDSFAITYIEWWDVGEAIGLKVPGSERSYDLTGLKPGTEYRVHIQGVKGGNNSYPLDALFTT
notes: FN3 domain
- huCD71/Fc [1]: 12
- hCD71 [2]: 310000
- IC50, SK-BR3 viability, MMAF conjugate, no competitor (CD71 on SK-BR-3 cells [3]): 1.3 nM
- IC50, SK-BR3 viability, MMAF conjugate, with 0.6 uM holo-human transferrin (CD71 on SK-BR-3 cells [3]): 196 nM
- IC50, SKBR-3 cell viability, MMAF conjugate (CD71 on SK-BR-3 cells [4]): 0.37 nM

B3: SEQ ID NO 53 (designed binder)
chain: B4 chain with S33F, K35S, L37I, Q41D, D42L, Y69H, H71E, A73F, Y79T, R80Q
notes: FN3 domain
- huCD71/Fc [1]: 110
- hCD71 [2]: 1.01e+06
- IC50, SK-BR3 viability, MMAF conjugate, no competitor (CD71 on SK-BR-3 cells [3]): 3.6 nM
- IC50, SK-BR3 viability, MMAF conjugate, with 0.6 uM holo-human transferrin (CD71 on SK-BR-3 cells [3]): ~90 nM
- IC50, SKBR-3 cell viability, MMAF conjugate (CD71 on SK-BR-3 cells [4]): 0.07 nM

B8: SEQ ID NO 35 (designed binder)
chain: MLPAPKNLVVSRVTEDSARLSWTAPDAAFDSFEIAYFEAIWNGEAIYLTVPGSERSYDLTGLKPGTEYQVEIRGVKGGPTSRPLFAWFTT
notes: FN3 domain
- huCD71/Fc [1]: 2130
- hCD71 [2]: 3.24e+06
- IC50, SK-BR3 viability, MMAF conjugate, no competitor (CD71 on SK-BR-3 cells [3]): 0.7 nM
- IC50, SK-BR3 viability, MMAF conjugate, with 0.6 uM holo-human transferrin (CD71 on SK-BR-3 cells [3]): 41.5 nM
- IC50, SKBR-3 cell viability, MMAF conjugate (CD71 on SK-BR-3 cells [4]): 2.5 nM

B9: SEQ ID NO 37 (designed binder)
chain: MLPAPKNLVVSRVTEDSARLSWTAPDAAFDSFHIIYTEEEKEGEAIYLRVPGSERSYDLTGLKPGTEYLVEIEGVKGGKRSVPLNASFTT
notes: FN3 domain
- huCD71/Fc [1]: 467
- hCD71 [2]: 1.27e+06
- IC50, SK-BR3 viability, MMAF conjugate, no competitor (CD71 on SK-BR-3 cells [3]): 0.7 nM
- IC50, SK-BR3 viability, MMAF conjugate, with 0.6 uM holo-human transferrin (CD71 on SK-BR-3 cells [3]): 143 nM
- IC50, SKBR-3 cell viability, MMAF conjugate (CD71 on SK-BR-3 cells [4]): 0.15 nM

B10: SEQ ID NO 38 (designed binder)
chain: MLPAPKNLVVSRVTEDSARLSWTAPDAAFDSFHIAYEESHTTGEAIFLRVPGSERSYDLTGLKPGTEYSVSIEGVKGGHYSPPLTAKFTT
notes: FN3 domain
- huCD71/Fc [1]: 202
- hCD71 [2]: 840000
- IC50, SK-BR3 viability, MMAF conjugate, no competitor (CD71 on SK-BR-3 cells [3]): 4 nM
- IC50, SK-BR3 viability, MMAF conjugate, with 0.6 uM holo-human transferrin (CD71 on SK-BR-3 cells [3]): ~120 nM
- IC50, SKBR-3 cell viability, MMAF conjugate (CD71 on SK-BR-3 cells [4]): 3.82 nM
